Reference: publication PMC11615899 (The Journal of Biological Chemistry, 2024)

Target: the molecule itself
Experiment: SEC

B1: F-BAR_(REMIND): the [70–347] region of TgREMIND with an N-terminal His-tag and five cysteines replaced (domain or fragment, Toxoplasma gondii, UniProt S8GLL7 70-347, looked up)
chain: APANATAENAFSFKEDLTSDWSLAVSRVDSGRTLLERLRAALLLRANAAVEQASKMESLVQTFVATNLESKTVMSAVNALRLEAVHQADHAREFAEAIRRDVVEGTLTNTIHNHYLVLQQIKADGSEAQKELTLATVDHQKAMHRYLRASKEAAAAAVKAQAAEGEAPNVRTELALSAIRRAVEAKAAEDEHRESVARLNAAAQANERKMAIILQSLQDMDEKRMLSFRDALRKAMVYQAAYLRNVQYDLEQTIKTVDAVDPMADLQEFLGKYRLPKK
stoichiometry N: 6
